Test results as given in publication PMC6348830, “In Vivo Biokinetics of ^177Lu-OPS201 in Mice and Pigs as a Model for Predicting Human Dosimetry” (Contrast Media & Molecular Imaging, 2019).
Positions of bridges follow the written chain, without caps; N, C: chain ends. Non-standard residues stand in square brackets, D forms with d. Residues, ends and D or L forms follow the SMILES beside them. *: point of attachment. DOTA = O=C(O)CN1CCN(CC(=O)O)CCN(CC(=O)*)CCN(CC(=O)O)CC1; dPhe(4-NHCONH2) = NC(=O)Nc1ccc(C[C@@H](N)C(=O)O)cc1; Dihydroorotyl(S) = O=C1C[C@@H](C(=O)*)NC(=O)N1; Phe(4-Cl) = N[C@@H](Cc1ccc(Cl)cc1)C(=O)O; Phe(4-NH2) = Nc1ccc(C[C@H](N)C(=O)O)cc1

Experiments:
clinical = test: clinical; parameters: species or system patients (humans); details: both sexes, human, in vivo, total radioactivity
Description: (§1) For analyzing the biokinetics of ^177Lu-labeled peptides in preclinical and clinical studies, the data of ^177Lu-OPS201 athymic nude Foxn1nu mice (28 females, weight: 26 ± 1 g, age: 8–9 weeks), Danish Landrace pigs (3 females-1 male, weight: 28 ± 2 kg, age: 3 months), and patients (3 females-1 male, weight: 61 ± 17 kg, age: 44–77 years) with administered activities of 0.19–0.27 MBq (mice, 0.017 µg of peptide), 97–113 MBq (pigs, 9 µg of peptide), and 850–1086 MBq (patients, 55–106 µg of peptide) were included. For pigs and patients, kidney protection was applied.
After administration of ^177Lu-OPS201, blood samples were taken up to 72 h for mice, up to 300 h for pigs, and up to 23 h for patients in order to measure the blood radioactivity contents by using the same well-type gamma counter (Packard Instruments). […] In order to convert the raw count values to blood uptake values per mL human blood in each time point, human blood data were quantified (in Bq/mL) retrospectively by using the same calibration factor as for the mouse study. […]
To quantify the amount of activity, the average percentage values corresponding to the injected radioactivity (A%) per organ as a function of time were calculated for the liver, right kidney, left kidney, and blood for each species via a manual VOI analysis (for pigs and patients) and via gamma counter (for mice). […]

in vivo = test: in vivo; parameters: species or system Danish Landrace pigs; details: both sexes, Danish Landrace, pig, total radioactivity
Description: as §1
After administration of ^177Lu-OPS201, blood samples were taken up to 72 h for mice, up to 300 h for pigs, and up to 23 h for patients in order to measure the blood radioactivity contents by using the same well-type gamma counter (Packard Instruments). The human blood data were, originally, provided as relative values, normalized to the first blood sample immediately taken after injection. In order to convert the raw count values to blood uptake values per mL human blood in each time point, human blood data were quantified (in Bq/mL) retrospectively by using the same calibration factor as for the mouse study.
After injection, multiple whole body (WB) planar images and SPECT/CT scans were acquired at 0.5, 2, 3, 4, 50, 100, 150, and 250 h to quantify the uptake in the kidneys and liver. […]

[1] = human, in vivo; cited from earlier work
Description: The fast blood clearance of the OPS201 in the first phase (<56 h) for each species was in agreement with studies of the agonist. […] For humans, most likely because of the short observation period, the value was lower (0.5 h). For the late phase in pigs, our result (58 h) is also close to the results obtained in the human study with the agonist (43 h). Part of an ongoing phase 1 study with ^177Lu-OPS201 in patients with SSTR-posi ...

Structure (SMILES)	tissue uptake dose at 10 min (clinical)	tissue uptake dose at 10 min (in vivo)	half-life of late phase, blood [1]	mean effective half-life of first phase, blood [1]
C[C@@H](O)[C@@H]1NC(=O)[C@H](CCCCN)NC(=O)[C@@H](Cc2ccc(NC(N)=O)cc2)NC(=O)[C@H](Cc2ccc(NC(=O)[C@@H]3CC(=O)NC(=O)N3)cc2)NC(=O)[C@H](NC(=O)[C@H](Cc2ccc(Cl)cc2)NC(=O)CN2CCN(CC(=O)O)CCN(CC(=O)O)CCN(CC(=O)O)CC2)CSSC[C@@H](C(=O)N[C@H](Cc2ccc(O)cc2)C(N)=O)NC1=O [177Lu-OPS201, metal not drawn] ({DOTA}-[Phe(4-Cl)][dC][Phe(4-NH2)](Dihydroorotyl(S))[dPhe(4-NHCONH2)]KTC[dY]-NH2; disulfide 2-7)	< 5 %ID	< 5 %ID		
C[C@@H](O)[C@H](NC(=O)[C@@H]1CSSC[C@H](NC(=O)[C@@H](Cc2ccccc2)NC(=O)CN2CCN(CC(=O)[O-])CCN(CC(=O)[O-])CCN(CC(=O)[O-])CC2)C(=O)N[C@@H](Cc2ccc(O)cc2)C(=O)N[C@H](Cc2c[nH]c3ccccc23)C(=O)N[C@@H](CCCCN)C(=O)N[C@@H]([C@@H](C)O)C(=O)N1)C(=O)O.[177Lu+3] [177Lu-octreotate, DOTA-[Tyr3]octreotate]			43 h	1.6 h
